For 1 molecule, stopped-flow CO binding (first electron transfer from CPR), monophasic k2, 3:1 CPR:CYP, 70 uM paclitaxel, 37 °C, stopped-flow CO binding (first electron transfer from CPR), fast phase k1, 1:1 CPR:CYP, 70 uM paclitaxel, 37 °C and stopped-flow CO binding (first electron transfer from CPR), slow phase k2, 1:1 CPR:CYP, 70 uM paclitaxel, 37 °C results are on record in publication PMC6769586.

Numbering of substitutions follows the chain as printed.

In assay [1] the target is T1, Cytochrome P450 2C8 R139K/K399R (CYP2C8*3) (human) (UniProt P10632).
T1 sequence: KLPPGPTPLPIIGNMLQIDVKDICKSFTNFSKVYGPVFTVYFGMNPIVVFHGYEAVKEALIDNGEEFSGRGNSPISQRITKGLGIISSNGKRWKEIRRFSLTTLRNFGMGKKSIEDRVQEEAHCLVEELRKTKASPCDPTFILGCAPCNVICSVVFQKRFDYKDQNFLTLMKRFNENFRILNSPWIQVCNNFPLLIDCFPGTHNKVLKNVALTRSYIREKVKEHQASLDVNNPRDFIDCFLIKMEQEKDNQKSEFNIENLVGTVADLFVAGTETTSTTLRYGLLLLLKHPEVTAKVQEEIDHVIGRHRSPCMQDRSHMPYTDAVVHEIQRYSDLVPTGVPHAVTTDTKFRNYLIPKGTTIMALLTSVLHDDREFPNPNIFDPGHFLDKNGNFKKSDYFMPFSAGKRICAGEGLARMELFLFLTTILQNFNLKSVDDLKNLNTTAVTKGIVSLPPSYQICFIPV

The target of the next assay is T2, CYP2C8-R139K (human) (UniProt P10632).
T2 sequence: T1 sequence with R372K

The target in assay [2] is T3, Cytochrome P450 2C8 (CYP2C8*1, wildtype) (human) (UniProt P10632).
T3 sequence: T1 sequence with K112R, R372K

The target of a further assay is T4, CYP2C8-K399R (human) (UniProt P10632).
T4 sequence: T1 sequence with K112R

B1: Cytochrome P450 reductase (enzyme)
chain: MGDSHEDTSATMPEAVAEEVSLFSTTDMVLFSLIVGVLTYWFIFRKKKEEIPEFSKIQTTAPPVKESSFVEKMKKTGRNIIVFYGSQTGTAEEFANRLSKDAHRYGMRGMSADPEEYDLADLSSLPEIDKSLVVFCMATYGEGDPTDNAQDFYDWLQETDVDLTGVKFAVFGLGNKTYEHFNAMGKYVDQRLEQLGAQRIFELGLGDDDGNLEEDFITWREQFWPAVCEFFGVEATGEESSIRQYELVVHEDMDVAKVYTGEMGRLKSYENQKPPFDAKNPFLAAVTANRKLNQGTERHLMHLELDISDSKIRYESGDHVAVYPANDSALVNQIGEILGADLDVIMSLNNLDEESNKKHPFPCPTTYRTALTYYLDITNPPRTNVLYELAQYASEPSEQEHLHKMASSSGEGKELYLSWVVEARRHILAILQDYPSLRPPIDHLCELLPRLQARYYSIASSSKVHPNSVHICAVAVEYEAKSGRVNKGVATSWLRAKEPAGENGGRALVPMFVRKSQFRLPFKSTTPVIMVGPGTGIAPFMGFIQERAWLREQGKEVGETLLYYGCRRSDEDYLYREELARFHKDGALTQLNVAFSREQAHKVYVQHLLKRDREHLWKLIHEGGAHIYVCGDARNMAKDVQNTFYDIVAEFGPMEHTQAVDYVKKLMTKGRYSLDVWS
Regarding B1, the values for the stopped-flow CO binding (first electron transfer from CPR), monophasic k2, 3:1 CPR:CYP, 70 uM paclitaxel, 37 °C (in assay [1]; with CYP2C8-R139K (human)) were 13.7 ms^-1 and 6.02 ms^-1, respectively. In addition, the stopped-flow CO binding (first electron transfer from CPR), fast phase k1, 1:1 CPR:CYP, 70 uM paclitaxel, 37 °C with CYP2C8-R139K (human) was 0.406 s⁻¹; in assay [2], 0.468 s⁻¹; in the assay with CYP2C8-K399R (human) it was 0.445 s⁻¹. Also, the stopped-flow CO binding (first electron transfer from CPR), slow phase k2, 1:1 CPR:CYP, 70 uM paclitaxel, 37 °C with CYP2C8-K399R (human) was determined as 19.4 ms^-1.
